# US20250066477A1
# Target: human γδ TCR (Vγ9Vδ2) on human γδ T cells (human)
# Assay: cell-based or functional assay
# Sequence of human γδ TCR (Vγ9Vδ2) on human γδ T cells (human) (main, as listed by the source): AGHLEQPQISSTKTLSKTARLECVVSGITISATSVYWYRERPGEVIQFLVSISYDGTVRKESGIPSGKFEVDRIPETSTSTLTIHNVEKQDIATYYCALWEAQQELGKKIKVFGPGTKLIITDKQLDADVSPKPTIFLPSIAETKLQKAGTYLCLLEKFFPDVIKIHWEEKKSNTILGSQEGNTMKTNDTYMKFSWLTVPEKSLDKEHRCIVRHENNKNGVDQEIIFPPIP
binder,measurement,value
"1D7v158×5T4 bispecific γδTCR×5T4 molecule (bispecific antibody, part only; not given: anti-5T4 VHH, Fc halves, not shown: a dimerising Fc or GST) chain, part: EVQLLESGGGEVQPGGSLRLSCVASRGKISQYRMGWYRQAPGKQRELVAHISNTGDAAEYVAPVKGRFTISRDNAKNALYLQMNSLRAEDTAVYKCNTVEDILAWGQGTLVTVEP","potency (EC50) of γδ T cell-mediated caspase-3/7 activation / cytotoxicity on A375 cells, against the molecule comprising 1D7v9",2 fold
